The text below walks through data of patent US9658208B2, “Methods and G proteins for screening and identifying ligands of G protein-coupled receptors” (Fred Hutchinson Cancer Research Center, priority 2011, dated 2017).

The subject of assay [1] is nine GPCRs that do not bind to Gαs (serotonin 1b, neuropeptide Y1, leukotriene B4, dopamine D4, GNRH, UDP, calcium-sensing, T1R2/T1R3). Put plainly: CRE-SEAP reporter gene assay, coupling of chimeric G proteins with a variety of GPCRs. It counts as cell-based. The settings on record: HEK-293 cells, GPCR ligand 48 hours. The text has this:
(§1) The GPCRs examined were those that couple with Gαi/Gαo subunits (serotonin 1b, neuropeptide Y1, leukotriene B4, and dopamine D4), Gαq (GNRH, UDP, and calcium-sensing receptors), and the orphan mammalian sweet taste receptor complex (T1R2 and T1R3) with unknown coupling preference. The Gαs-based chimeric G proteins examined in this example were Gαs-Gαi-5, Gαs-Gαt-13 (SEQ ID NO: 3), Gαs-Gαo-13 (SEQ ID NO: 4), Gαs-Gαi-13 (SEQ ID NO: 5), Gαs-Gαz-6 (SEQ ID NO: 18), Gαs-Gα15-13 (SEQ ID NO: 7), Gαs-Gαk-5 (SEQ ID NO: 2), and Gαs-Gαq-13 (SEQ ID NO: 8). The chimeric G protein constructs were prepared as described herein. For the coupling assay, HEK-293 cells were cotransfected with each of the Gαs-based chimeric G protein constructs of interest together with the CRE-SEAP reporter gene construct and a cDNA encoding the GPCR to be tested. The transfected cells were cultured in the presence or absence of a GPCR ligand and then assayed for SEAP activity.
Chimeric G protein cloning: An insert containing rat Gαs cDNA was cut out using the restriction enzymes SaII and HinDIII, and ligated into pcDNA3.1(−) cut with XhoI and HinDIII. The chimeric G proteins with the desired C-terminal amino acid substitutions from the Gαi, Gαt, Gαo, Gαz, Gα15, Gαk, and Gαq were prepared by PCR using Gαs as a template. More specifically, Gαs was PCR amplified between an internal EcoRI site and the stop codon, with a 3′ HinDIII placed immediately after the stop codon. A different 3′ oligonucleotide was used for each Gαs chimera and contained a 39 bp sequence that encoded the substituted amino acids at the C-terminus selected from the donor Gα subunit.
GPCR cloning: Mouse 5-HT1B, mouse dopamine D4, human GNRH, and human neuropeptide Y1 receptors were cloned by PCR from cDNA templates (ATCC) and ligated into pcDNA 3.1(−) (Invitrogen) for expression in mammalian cells. […]
(§2) Following transfection, the cells were maintained for 48 hours in 200 ul serum free media containing GPCR ligand. […] Fluorescence was then measured using a CytoFluor 4000 multi well plate reader (Applied Biosystems).
For orientation: In a reporter assay the amount or activity of a reporter protein is the signal.

The target in a further assay is T1, dopamine D4 receptor (Mus musculus, UniProt P51436).
T1 construct: expressed in transfected cells; host or cells: HEK-293
T1 sequence (P51436 1-387): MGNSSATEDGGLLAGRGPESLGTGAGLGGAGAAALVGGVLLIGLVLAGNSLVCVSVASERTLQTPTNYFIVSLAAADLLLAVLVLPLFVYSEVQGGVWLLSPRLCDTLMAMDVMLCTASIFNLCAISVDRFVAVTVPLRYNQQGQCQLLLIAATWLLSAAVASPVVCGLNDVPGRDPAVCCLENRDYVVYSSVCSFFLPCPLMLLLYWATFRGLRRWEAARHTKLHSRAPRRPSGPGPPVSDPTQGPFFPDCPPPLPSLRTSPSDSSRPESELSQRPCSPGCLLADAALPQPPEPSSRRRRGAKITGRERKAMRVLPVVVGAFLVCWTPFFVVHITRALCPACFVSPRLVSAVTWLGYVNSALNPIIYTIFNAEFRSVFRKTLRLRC
Put plainly: CRE-SEAP reporter gene assay, coupling with dopamine D4. The class given is cell-based. The following applies: HEK-293 cells, 1 uM dopamine.
Excerpt: as §1
Chimeric G protein cloning: An insert containing rat Gαs cDNA was cut out using the restriction enzymes SaII and HinDIII, and ligated into pcDNA3.1(−) cut with XhoI and HinDIII. […]
as §2

B1: Gαs-Gαt-13: Gαs-based chimeric G protein, final 13 C-terminal amino acids substituted with those of Gαt (protein)
chain: MGCLGNSKTEDQRNEEKAQREANKKIEKQLQKDKQVYRATHRLLLLGAGESGKSTIVKQMRILHVNGFNGEGGEEDVPDYASNSDGEKATKVQDIKNNLKEAIETIVAAMSNLVPPVELANPENQFRVDYILSVMNVPNFDFPPEFYEHAKALWEDEGVRACYERSNEYQLIDCAQYFLDKIDVIKQADYVPSDQDLLRCRVLTSGIFETKFQVDKVNFHMFDVGGQRDERRKWIQCFNDVTAIIFVVASSSYNMVIREDNQTNRLQEALNLFKSIWNNRWLRTISVILFLNKQDLLAEKVLAGKSKIEDYFPEFARYTTPEDATPEPGEDPRVTRAKYFIRDEFLRISTASGDGRHYCYPHFTCAVDTENIRRVFNDCRDIIIKENLKDCGLF
modifications: Chimeric protein
notes: Gαs-based chimeric G protein, final 13 C-terminal amino acids substituted with those of Gαt
For the molecule B1, the “GPCRs tested that coupled to the chimera” value in assay [1] is recorded as “All but one”. Also, in the assay with dopamine D4 receptor, the “coupling with dopamine D4 receptor” value is “did not couple”.
